The text below walks through data of publication PMC10853779.

The test concerns the target T1, phosphorylated NarL (E. coli nitrate-responsive transcription regulator), wild type (E. coli K12), P0AF28.
T1 chain: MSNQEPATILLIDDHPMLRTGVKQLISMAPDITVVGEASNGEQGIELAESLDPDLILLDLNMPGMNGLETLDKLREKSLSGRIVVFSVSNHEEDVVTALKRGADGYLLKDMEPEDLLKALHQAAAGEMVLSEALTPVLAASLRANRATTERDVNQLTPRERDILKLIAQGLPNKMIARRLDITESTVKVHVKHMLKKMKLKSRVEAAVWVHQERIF
Description: cryo-EM structure. To be noted: remark: other sources report otherwise.

B1: phosphorylated NarL (E. coli nitrate-responsive transcription regulator), wild type, P0AF28 1-216 (natural protein)
chain: T1 chain
One may read the stoichiometry N as a count of units in the complex or per binding partner. In turn, B1 returned a stoichiometry N of 2.
